Here are results for one substance from patent US20060115810A1.

The assay deals with extracellular region of the human tumor antigen c-erbB-2 (human) (UniProt P04626). The assay is described as follows: method not given.

For scFv C6.5, the equilibrium dissociation constant (Kd) – broadly, the free concentration of one partner at which half of the binding sites on the other are occupied at equilibrium, for simple one-to-one binding – was 0.16 nM.
